Measurements reported in paper doi:10.1101/2025.06.12.659315, “Structural Basis for Cas9-Directed Spacer Acquisition in Type II-A CRISPR-Cas Systems” (bioRxiv, 2025).

T1: Enterococcus faecalis Cas1-Cas2 integrase complex (Cas1_(4)-Cas2_(2) hexamer) (Enterococcus faecalis, UniProt A0A3N3GDE4 1-288; A0A3N3FLR9 1-109)
T1 construct: Cas1 of the Enterococcus faecalis type II-A CRISPR-Cas system, full length; as the chain of m3; Cas2 of the Enterococcus faecalis type II-A CRISPR-Cas system, full length; as the chain of m4; Complex formed beforehand; used as one partner in the gel filtration and DNA cleavage assays; also called Cas1-Cas2 hexamer; Cas1-Cas2 complex; source: E. coli BL21 Star (DE3); tag-cleaved Cas1 and Cas2 …
T1 sequence (looked up) 1: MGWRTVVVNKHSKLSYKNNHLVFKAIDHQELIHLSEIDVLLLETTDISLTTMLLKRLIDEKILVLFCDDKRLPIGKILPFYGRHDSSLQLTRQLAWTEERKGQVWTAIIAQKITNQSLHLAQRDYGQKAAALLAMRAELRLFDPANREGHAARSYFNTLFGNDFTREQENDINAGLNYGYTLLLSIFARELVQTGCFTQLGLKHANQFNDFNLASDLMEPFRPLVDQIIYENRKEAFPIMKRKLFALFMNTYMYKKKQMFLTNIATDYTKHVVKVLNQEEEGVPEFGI
T1 sequence (looked up) 2: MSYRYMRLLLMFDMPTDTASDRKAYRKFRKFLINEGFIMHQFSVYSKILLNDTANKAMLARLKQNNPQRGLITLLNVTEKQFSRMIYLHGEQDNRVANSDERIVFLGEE


Assays:
[1] = biological target: the molecule itself; test: cryo-EM structure; apo-state Cas9/RNA-Csn2-Cas1-Cas2 supercomplex, assembled from purified proteins and purified by SEC in 20 mM HEPES pH 7.5, 250 mM NaCl; 3.9 Å
[2] = biological target: the molecule itself; test: cryo-EM structure; preassembled Cas9/RNA-Csn2-Cas1-Cas2 supercomplex incubated with a 59-bp PAM-containing dsDNA at 4 °C for 30 min; Cas9-containing prespacer catching complex, State I 2.96 Å and State II 3.01 Å
[3] = biological target: T1, Enterococcus faecalis Cas1-Cas2 …; test: SEC; analytical SEC, Superdex 200 Increase 10/300 GL, 20 mM HEPES pH 7.5, 250 mM NaCl; Cas9/RNA, Csn2 and Cas1-Cas2 mixed; fractions analysed by SDS-PAGE (Coomassie); conditions: both partners purified

| Binder | stoichiometry N [1] | stoichiometry N [2] | binding result [3] |
| --- | --- | --- | --- |
| Enterococcus faecalis Cas2 (natural protein, UniProt A0A3N3FLR9 1-109, looked up, Cas2 of the Enterococcus faecalis type II-A CRISPR-Cas system, full-length gene amplified from E. faecalis genomic DNA; Cas2 was purified together with Cas1 (Cas1:Cas2 mixed 2:1) before use; also called EfaCas2; Cas2 dimer; source: E. coli BL21 Star (DE3), purified (Ni-NTA, SUMO protease cleavage, Superdex 200 SEC with Cas1)) MSYRYMRLLLMFDMPTDTASDRKAYRKFRKFLINEGFIMHQFSVYSKILLNDTANKAMLARLKQNNPQRGLITLLNVTEKQFSRMIYLHGEQDNRVANSDERIVFLGEE | 2 | – | – |
| Enterococcus faecalis Cas1 (enzyme, UniProt A0A3N3GDE4 1-288, looked up, Cas1 of the Enterococcus faecalis type II-A CRISPR-Cas system, full-length gene amplified from E. faecalis genomic DNA; Cas1 was purified together with Cas2 (mixed 2:1) before use; also called EfaCas1; Cas1 dimer; source: E. coli BL21 Star (DE3), purified (Ni-NTA, SUMO protease cleavage, Superdex 200 SEC with Cas2)) MGWRTVVVNKHSKLSYKNNHLVFKAIDHQELIHLSEIDVLLLETTDISLTTMLLKRLIDEKILVLFCDDKRLPIGKILPFYGRHDSSLQLTRQLAWTEERKGQVWTAIIAQKITNQSLHLAQRDYGQKAAALLAMRAELRLFDPANREGHAARSYFNTLFGNDFTREQENDINAGLNYGYTLLLSIFARELVQTGCFTQLGLKHANQFNDFNLASDLMEPFRPLVDQIIYENRKEAFPIMKRKLFALFMNTYMYKKKQMFLTNIATDYTKHVVKVLNQEEEGVPEFGI | – | 2 | – |
| Enterococcus faecalis Csn2 (natural protein, UniProt C7UDU4 1-219, looked up, Csn2 of the Enterococcus faecalis type II-A CRISPR-Cas system, full-length gene amplified from E. faecalis genomic DNA; Homotetramer ring with a central channel for dsDNA; also called EfaCsn2; Csn2 tetramer; source: E. coli BL21 Star (DE3), purified (Ni-NTA, TEV cleavage, Superdex 200 SEC); not shown: His6, N-terminal, cleaved; MBP, N-terminal, cleaved) MRVNFSLLEEPIEIEKATFLTIKDVQSFAHLVKLIYQYDGENELKLFDAQQKGLKPTELFVVTDILGYDVNSAATLKLIYGDLEAQLNDKPEVKSMIEKLTGTISQLIGYELLEHEMDLEEDGIIVQELFKALGIKIETTSDTIFEKVMEITQVHRYLSKKKLLIFINACTYLTEDEVQQVVEYISLNNVDVLFLEQRVVQNRFQYILDENFYLSYEKA | – | 4 | binds |
